Test results: US20030148921

Columns and labels:
[1] = target: GPAR2^R34S activation site mutant fusion protein
[2] = target: GPAR3^K37S activation site mutant fusion protein
[3] = target: GPAR4^R47S activation site mutant fusion protein
[4] = target: activation site mutant fusion protein GPAR1^R45S
[5] = target: galactosidase-PAR1 (GPAR1) fusion protein [β-galactosidase: P00722]
[6] = target: galactosidase-PAR2 (GPAR2) fusion protein
[7] = target: galactosidase-PAR3 (GPAR3) fusion protein
[8] = target: galactosidase-PAR4 (GPAR4) fusion protein
Chain of galactosidase-PAR4 (GPAR4) fusion protein (chain, as listed by the source, chain 1 of 2): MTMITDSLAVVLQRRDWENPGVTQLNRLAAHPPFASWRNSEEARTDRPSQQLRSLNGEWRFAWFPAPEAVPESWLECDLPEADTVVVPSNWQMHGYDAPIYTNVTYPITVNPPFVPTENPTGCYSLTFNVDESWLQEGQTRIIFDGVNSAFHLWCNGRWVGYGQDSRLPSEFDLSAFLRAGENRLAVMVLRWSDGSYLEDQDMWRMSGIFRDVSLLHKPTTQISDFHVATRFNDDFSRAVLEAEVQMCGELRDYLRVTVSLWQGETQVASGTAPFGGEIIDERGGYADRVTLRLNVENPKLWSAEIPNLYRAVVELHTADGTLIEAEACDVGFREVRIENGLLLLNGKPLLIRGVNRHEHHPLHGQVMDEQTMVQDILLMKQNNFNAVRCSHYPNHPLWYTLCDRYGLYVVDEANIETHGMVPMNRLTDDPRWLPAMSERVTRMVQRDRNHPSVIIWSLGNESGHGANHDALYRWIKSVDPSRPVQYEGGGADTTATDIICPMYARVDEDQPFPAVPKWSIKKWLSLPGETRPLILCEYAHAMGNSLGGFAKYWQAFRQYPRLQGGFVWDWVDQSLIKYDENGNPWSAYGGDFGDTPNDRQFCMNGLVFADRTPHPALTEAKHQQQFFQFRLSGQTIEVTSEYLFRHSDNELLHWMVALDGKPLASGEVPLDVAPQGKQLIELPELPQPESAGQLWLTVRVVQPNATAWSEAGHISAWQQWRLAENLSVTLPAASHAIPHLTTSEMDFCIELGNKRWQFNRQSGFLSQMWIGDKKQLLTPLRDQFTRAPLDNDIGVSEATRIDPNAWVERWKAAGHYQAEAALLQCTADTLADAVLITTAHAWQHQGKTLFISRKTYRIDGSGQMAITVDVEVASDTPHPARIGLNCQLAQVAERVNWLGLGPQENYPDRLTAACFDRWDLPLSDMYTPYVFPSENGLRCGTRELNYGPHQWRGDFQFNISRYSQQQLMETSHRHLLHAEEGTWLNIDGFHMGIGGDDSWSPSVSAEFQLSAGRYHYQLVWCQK
Chain of galactosidase-PAR4 (GPAR4) fusion protein (chain, as listed by the source, chain 2 of 2): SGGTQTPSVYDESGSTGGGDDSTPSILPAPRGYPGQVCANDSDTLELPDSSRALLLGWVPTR

Chain of GPAR4^R47S activation site mutant fusion protein (chain, as listed by the source R47S, chain 1 of 2): as the sequence (chain, as listed by the source, chain 1 of 2) above, with R47S counted along it
Chain of GPAR4^R47S activation site mutant fusion protein (chain, as listed by the source R47S, chain 2 of 2): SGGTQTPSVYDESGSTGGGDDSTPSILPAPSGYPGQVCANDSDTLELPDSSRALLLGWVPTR
Chain of galactosidase-PAR1 (GPAR1) fusion protein [β-galactosidase: P00722] (P00722 whole entry, chain 1 of 2, the tested form may be a part): as the sequence (chain, as listed by the source, chain 1 of 2) above
Chain of galactosidase-PAR1 (GPAR1) fusion protein [β-galactosidase: P00722] (chain, as listed by the source, chain 2 of 2): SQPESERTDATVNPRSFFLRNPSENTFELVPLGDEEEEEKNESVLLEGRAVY
Chain of galactosidase-PAR3 (GPAR3) fusion protein (chain, as listed by the source, chain 1 of 2): as the sequence (chain, as listed by the source, chain 1 of 2) above
Chain of galactosidase-PAR3 (GPAR3) fusion protein (chain, as listed by the source, chain 2 of 2): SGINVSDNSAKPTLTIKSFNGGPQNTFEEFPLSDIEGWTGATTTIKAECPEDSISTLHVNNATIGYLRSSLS
Chain of galactosidase-PAR2 (GPAR2) fusion protein (chain, as listed by the source, chain 1 of 2): as the sequence (chain, as listed by the source, chain 1 of 2) above
Chain of galactosidase-PAR2 (GPAR2) fusion protein (chain, as listed by the source, chain 2 of 2): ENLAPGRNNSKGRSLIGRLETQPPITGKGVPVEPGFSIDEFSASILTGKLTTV

Protein	β-Galactosidase release rate (mmol β-Galactosidase/(molProtease * min)) [1]	β-Galactosidase release rate (mmol β-Galactosidase/(molProtease * min)) [2]	β-Galactosidase release rate (mmol β-Galactosidase/(molProtease * min)) [3]	β-Galactosidase release rate (mmol β-Galactosidase/(molProtease * min)) [4]	β-Galactosidase release rate (determined in the presence of hirudin) [5]	β-Galactosidase release rate (mmol β-Galactosidase/(molProtease * min)) [6]	β-Galactosidase release rate (determined in the presence of hirudin) [7]	β-Galactosidase release rate (mmol β-Galactosidase/(molProtease * min)) [8]	β-Galactosidase release rate (mmol β-Galactosidase/(molProtease * min)) [5]	cleavage efficiency, against GPAR2^R34S [6]	cleavage rate, against trypsin [6]	activity on GPAR3, against thrombin [7]	β-Galactosidase release rate (mmol β-Galactosidase/(molProtease * min)) [7]
bovine activated protein C (protein) ANSFLEELRPGNVERECSEEVCEFEEAREIFQNTEDTMAFWSFYSDGDQCEDRPSGSPCDLPCCGRGKCIDGLGGFRCDCAEGWEGRFCLHEVRFSNCSAENGGCAHYCMEEEGRRHCSCAPGYRLEDDHQLCVSKVTFPCGRLGKRMEKKRKTLKRDTNQVDQKDQLDPRIVDGQEAGWGESPWQAVLLDSKKKLVCGAVLIHVSWVLTVAHCLDSRKKLIVRLGEYDMRRWESWEVDLDIKEVIIHPNYTKSTSDNDIALLRLAKPATLSQTIVPICLPDSGLSERKLTQVGQETVVTGWGYRDETKRNRTFVLSFIKVPVVPYNACVHAMENKISENMLCAGILGDPRDACEGDSGGPMVTFFRGTWFLVGLVSWGEGCGRLYNYGVYTKVSRYLDWIYGHIKAQEAPLESQVP	≤ 0.01	≤ 0.01	≤ 0.01	≤ 0.01	≦1 * 10^-2 a	≤ 0.01	≦1 * 10^-2 a	≤ 0.01	–	–	–	–	–
human plasmin (protein) KVYLSECKTGNGKNYRGTMSKTKNGITCQKWSSTSPHRPRFSPATHPSEGLEENYCRNPDNDPQGPWCYTTDPEKRYDYCDILECEEECMHCSGENYDGKISKTMSGLECQAWDSQSPHAHGYIPSKFPNKNLKKNYCRNPDRELRPWCFTTDPNKRWELCDIPRCTTPPPSSGPTYQCLKGTGENYRGNVAVTVSGHTCQHWSAQTPHTHNRTPENFPCKNLDENYCRNPDGKRAPWCHTTNSQVRWEYCKIPSCDSSPVSTEQLAPTAPPELTPVVQDCYHGDGQSYRGTSSTTTTGKKCQSWSSMTPHRHQKTPENYPNAGLTMNYCRNPDADKGPWCFTTDPSVRWEYCNLKKCSGTEASVVAPPPVVLLPDVETPSEEDCMFGNGKGYRGKRATTVTGTPCQDWAAQEPHRHSIFTPETNPRAGLEKNYCRNPDGDVGGPWCYTTNPRKLYDYCDVPQCAAPSFDCGKPQVEPKKCPGRVVGGCVAHPHSWPWQVSLRTRFGMHFCGGTLISPEWVLTAAHCLEKSPRPSSYKVILGAHQEVNLEPHVQEIEVSRLFLEPTRKDIALLKLSSPAVITDKVIPACLPSPNYVVADRTECFITGWGETQGTFGAGLLKEAQLPVIENKVCNRYEFLNGRVQSTELCAGHLAGGTDSCQGDSGGPLVCFEKDKYILQGVTSWGLGCARPNKPGVYVRVSRFVTWIEGVMRNN	0.35	0.16	0.26	0.29	–	0.67	–	0.48	4.1	Plasmin cleaved GPAR2 two times more efficiently than GPAR2^R34S	only at a 560 fold lower rate than trypsin	about 120 times less active than thrombin	0.34
human single-chain tPA (protein) SYQVICRDEKTQMIYQQHQSWLRPVLRSNRVEYCWCNSGRAQCHSVPVKSCSEPRCFNGGTCQQALYFSDFVCQCPEGFAGKCCEIDTRATCYEDQGISYRGTWSTAESGAECTNWNSSALAQKPYSGRRPDAIRLGLGNHNYCRNPDRDSKPWCYVFKAGKYSSEFCSTPACSEGNSDCYFGNGSAYRGTHSLTESGASCLPWNSMILIGKVYTAQNPSAQALGLGKHNYCRNPDGDAKPWCHVLKNRRLTWEYCDVPSCSTCGLRQYSQPQFRIKGGLFADIASHPWQAAIFAKHRRSPGERFLCGGILISSCWILSAAHCFQERFPPHHLTVILGRTYRVVPGEEEQKFEVEKYIVHKEFDDDTYDNDIALLQLKSDSSRCAQESSVVRTVCLPPADLQLPDWTECELSGYGKHEALSPFYSERLKEAHVRLYPSSRCTSQHLLNRTVTDNMLCAGDTRSGGPQANLHDACQGDSGGPLVCLNDGRMTLVGIISWGLGCGQKDVPGVYTKVTNYLDWIRDNMRP	≤ 0.01	≤ 0.01	≤ 0.01	≤ 0.01	–	≤ 0.01	–	≤ 0.01	≤ 0.01	–	–	–	0.03
human leukocyte elastase (protein) IVGGRRARPHAWPFMVSLQLRGGHFCGATLIAPNFVMSAAHCVANVNVRAVRVVLGAHNLSRREPTRQVFAVQRIFENGYDPVNLLNDIVILQLNGSATINANVQVAQLPAQGRRLGNGVQCLAMGWGLLGRNRGIASVLQELNVTVVTSLCRRSNVCTLVRGRQAGVCFGDSGSPLVCNGLIHGIASFVRGGCASGLYPDAFAPVAQFVNWIDSIIQ	16	93	11	140	–	24	–	12	78	–	–	–	50
